Target: T1, Monomeric human ASC-His (recombinant full-length ASC) (human, UniProt Q9ULZ3 1-195)
T1 construct: ASC (apoptosis-associated speck-like protein containing a CARD), human, recombinant full-length, monomeric; The methods list ASC-His and ASC-GFP-His; also called apoptosis-associated speck-like protein containing a caspase recruitment domain; monomeric recombinant human ASC; source: E. coli BL21(DE3), purified from inclusion bodies (Nickel beads, size exclusion chromatography)
Test: limited proteolysis-coupled mass spectrometry (LiP-MS); purified monomeric recombinant ASC incubated with monomeric recombinant human SAA1, 15 min at 37 °C in LiP buffer (100 mM HEPES pH 7.4, 150 mM KCl, 1 mM MgCl2); proteinase K 1:100 (w/w) 5 min at 37 °C; ASC peptides compared with and without SAA1
Conditions: both partners purified

T1 sequence (Q9ULZ3 whole entry, the tested form may be a part): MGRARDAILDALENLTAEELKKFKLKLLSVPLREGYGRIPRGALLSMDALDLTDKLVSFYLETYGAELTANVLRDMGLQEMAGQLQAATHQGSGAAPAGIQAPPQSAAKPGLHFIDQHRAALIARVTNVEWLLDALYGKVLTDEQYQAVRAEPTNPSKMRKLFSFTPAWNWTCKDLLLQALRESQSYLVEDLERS

B1: recombinant human SAA1 (natural protein, UniProt P0DJI8 19-122, looked up)
chain: RSFFSFLGEAFDGARDMWRAYSDMREANYIGSDKYFHARGNYDAAKRGPGGAWAAEVITDARENIQRFFGHGAEDSLADQAANEWGRSGKDPNHFRPAGLPEKY
notes: Serum amyloid A-1 (SAA1), human, recombinant; The assay format tells the two apart; How the fibrils were made is not described; also called serum amyloid A; monomeric recombinant human SAA1
binding result: binds

Source: publication PMC11393341, “The ASC inflammasome adapter governs SAA-derived protein aggregation in inflammatory amyloidosis” (EMBO Molecular Medicine, 2024)
